# Data published in patent US20040234519A1.
# B1: monoclonal antibody produced by the hybridoma cell line 3B10 (antibody, V domains shown)
# VH: QVQLQQSGPELVKPGASVKISCQASGYAFSSHWMNWVKQRPGKGLEWIGRIYPGDGDSLYNGKFKGKATLTADKSSTTVYMQLSSLTSEDSAVYFCARTRAYGPAWFAYWGQGTLVTVSA
# VL: DIVMTQSPSSLAMSVGQKVTLSCRSSQSLLDSNNQKNYLAWYQQKPGQSPKLLVYFASIRESGVPDRFIGSGSGTDFTLTITSVQAEDLADYFCQQHYSTPLTFGAGTKLELK
# modifications: N-terminus of the heavy chain blocked, most likely modified NH2-terminal glutamine
# What was measured:
# [1] = molecular target: T1, PTN secreted by SW13/PTN cells (SW13 human adrenal carcinoma cells stably transfected with PTN cDNA) (human) (UniProt P21246); assay: ELISA, PTN captured from SW13/PTN supernatant by goat anti-human PTN polyclonal, read at 450 nm
# T1 sequence: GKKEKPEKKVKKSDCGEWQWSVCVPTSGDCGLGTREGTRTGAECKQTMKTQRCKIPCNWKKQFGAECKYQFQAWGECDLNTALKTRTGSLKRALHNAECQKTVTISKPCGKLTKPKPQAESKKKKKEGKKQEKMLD
# [2] = molecular target: T1, PTN secreted by SW13/PTN cells (SW13 human adrenal carcinoma cells stably transfected with PTN cDNA) (human); assay: cell-based or functional assay
# [3] = molecular target: T2, recombinant human PTN (R & D Systems, cat# 252-PL) (human) (UniProt P21246); assay: ELISA, plate coated with rhPTN, hybridoma antibody, read at 450 nm
# T2 sequence: T1 sequence
binder,measurement,setting,value
B1,ELISA OD,[1],0.139 OD
same,Proliferation NIH 3T3 (inhibition),[2],50 % inhibition
same,Proliferation U87 MG (inhibition),[2],50 % inhibition
same,Proliferation WI38 (inhibition),[2],25 % inhibition
same,Soft Agar (inhibition),[2],100 % inhibition
same,"inhibition of SW13 colony formation in soft agar, antibody at 10 ug/ml",[2],< 95%
same,ELISA OD,[3],0.597 OD
